Measurements: the supplement of paper PMC10567573
± gives the standard deviation.

Assay: protein stability index of a GFP-peptide fusion (GPS, HEK-293T) (PSI 1-6); higher = more stable
[1] = treatment: DMSO, c terminus: a fixed tail appended
[2] = treatment: MLN4924 1 uM, 8 h, c terminus: a fixed tail appended
[3] = treatment: DMSO, c terminus: native
[4] = treatment: MLN4924 1 uM, 8 h, c terminus: native
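Further: 24-mer peptide tiles fused after GFP, lentivirally expressed, FACS-sorted into six equal bins by GFP/DsRed ratio, decoded by Illumina sequencing, PSI is the read-weighted mean bin number.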

Sequence | protein stability index [1] | protein stability index [2] | protein stability index [3] | protein stability index [4]
HRDIKPDNLLLDAKGHVKLSDFGL [STK38L] | 3.27 ± 0.23 | 3.4 ± 0.15 | – | –
HSAVLRDLRSGTLYSLTLYGLRGP [TNXB] | 2.98 ± 0.63 | 2.68 ± 0.38 | – | –
HSLQQSEPDLRHLVLVVNTLRRIQ [SERTAD1] | 2.44 ± 0.33 | 2.61 ± 0.17 | – | –
HSMRNSLESTLAETEARYSSQLAQ [KRT36] | 4.53 ± 0.22 | 4.57 ± 0.17 | – | –
HSVNRDLNELERLSNLVGKPSENH [MED27] | 4.75 ± 0.18 | 4.71 ± 0.11 | – | –
HTMRKISNNITLREDQLDTVLAVL [INTS4] | 2.39 ± 0.27 | 2.35 ± 0.21 | – | –
HTRQLISCGGDGGIVVWNMDVERQ [WDFY2] | 2.55 ± 0.36 | 2.4 ± 0.14 | – | –
HVINQGMAMYWGTSRWSSMEIMEA [KCNAB2] | 2.67 ± 0.53 | 2.42 ± 0.21 | – | –
HVKIVKLLLAHKADVNAQSSTGNT [ANKRD17] | 2.32 ± 0.26 | 2.36 ± 0.22 | – | –
HVPNPPSGISFPSVVDHPMPEERA [HESX1] | 3.48 ± 0.74 | 3.99 ± 0.52 | – | –
HWFRKGLRLHDNPALKECIQGADT [CRY1] | 3.11 ± 0.19 | 3.45 ± 0.38 | – | –
IALGQMLSLCICGTAITSQYLAER [SLC35F2] | 3.37 ± 0.27 | 2.48 ± 0.16 | – | –
IATYRSLLEGQDAKMAGIGIREAS [KRT15] | 3.09 ± 0.23 | 3.25 ± 0.1 | – | –
IDALLEFDVHPNELTNGVINAAFM [SNAP91] | 2.39 ± 0.38 | 2.32 ± 0.36 | – | –
IDTVYSTAFAPKMIVDLLSEKKTI [OR4A15] | 2.37 ± 0.19 | 2.52 ± 0.26 | – | –
IEEGFNPVQASQLEEEFDSDSGLS [NFE2L1] | 5.37 ± 0.25 | 5.44 ± 0.16 | – | –
IFAQGAPRSSLAESFFVDYEENEG [ADAMTSL2] | 4.05 ± 0.067 | 4.98 ± 0.26 | – | –
IFLGFSSLARLQQLLFVIFLLLYL [OR10K2] | 2.65 ± 0.58 | 2.31 ± 0.52 | – | –
IGATFTDWFTSYVKNVVSGGFPII [FBXO3] | 2.65 ± 0.84 | 2.7 ± 0.76 | – | –
IGGLLGATFNCLNKRLAKYRMRNV [CLCN6] | 2.34 ± 0.2 | 2.2 ± 0.53 | – | –
IGIEAKNLASYDVCSILLGTSTLL [MCOLN1] | 2.84 ± 0.7 | 2.92 ± 0.66 | – | –
IGREGAKDSYDFFTEIKTITVKH [ALDH8A1] | – | – | 2.35 ± 0.43 | 2.42 ± 0.25

Sequence | protein stability index [1] | protein stability index [2] | protein stability index [3] | protein stability index [4]
IKAEPASPDSPKGSSETETEPPVA [ESRRA] | 5.58 ± 0.17 | 5.62 ± 0.11 | – | –
IKEQEVCKLQEQLEATVKKLEESK [SASS6] | 5.1 ± 0.27 | 5.05 ± 0.25 | – | –
IKLFACYNDGVINLLEKFFEMKKG [SNAP91] | 2.39 ± 0.57 | 2.48 ± 0.37 | – | –
IKVKPKRVGIFLDYEAGTLSFYNV [TRIM39] | 2.54 ± 0.54 | 2.61 ± 0.48 | – | –
ILAQQPDRLRDEELAELEDALRNL [TRADD] | 5.29 ± 0.22 | 4.94 ± 0.17 | – | –
ILGRTFFIYDCDPFTRRYYKEKFG [EFHC1] | 2.52 ± 0.63 | 2.24 ± 0.63 | – | –
ILKRKWWKYILLGLADVEANYVIV [SLC35F2] | 2.55 ± 0.5 | 2.23 ± 0.76 | – | –
ILLESHMVMIRGNSGLKPKDNEFT [POMT2] | 2.21 ± 0.31 | 2.15 ± 0.21 | – | –
ILNTTGTYSGKAADVWSLGVMLYT [TRIB1] | 2.7 ± 0.76 | 2.25 ± 0.6 | – | –
ILRFIYSGAFQWEELEEDIRKKLK [RHOBTB3] | 2.25 ± 0.27 | 2.48 ± 0.53 | – | –
ILSFILAIPEAIGFVMVPFEYRGE [EDNRA] | 3.6 ± 0.94 | 3.15 ± 0.51 | – | –
IMIIICCVILGIVIASTVGGIFA [STX1A] | – | – | 3.62 ± 0.33 | 3.79 ± 0.14
INAAFMLLFKDLIKLFACYNDGVI [SNAP91] | 2.9 ± 0.54 | 3.39 ± 0.65 | – | –
IRKYNYVAMDTEFPGVVARPIGEF [CNOT7] | 2.21 ± 0.19 | 2.16 ± 0.2 | – | –
IRVLLAFIVLFLLWPFAWLQVAGL [LPCAT4] | 2.6 ± 0.69 | 3.14 ± 0.44 | – | –
IVKAMASPESGLEVRDRMLLKITI [DVL3] | 3.12 ± 0.44 | 2.9 ± 0.55 | – | –
IVNDELYLNGASVLPHKSIGESVP [GMPPB] | 3.67 ± 0.24 | 3.4 ± 0.29 | – | –
IYAFAGMTNHQLSTTEWNDETLYQ [CHIT1] | 2.36 ± 0.26 | 2.61 ± 0.22 | – | –
KACSLLDVAVHMPCLGHTFNAGIQ [ZBED1] | 2.19 ± 0.5 | 2.11 ± 0.36 | – | –
KAFADPEVLRRLTSSVSCALDEAA [ANKRD17] | 3.08 ± 0.34 | 3.18 ± 0.21 | – | –
KALNLLPANTQINDIRIFLEKVLE [VPS39] | 2.11 ± 0.41 | 2.04 ± 0.29 | – | –
KAPVVECSITGDSSRVIAASYDKT [WDR88] | 4.56 ± 0.2 | 4.78 ± 0.12 | – | –

Sequence | protein stability index [1] | protein stability index [2] | protein stability index [3] | protein stability index [4]
KASGRFGLLQGTSAETSGGLLICL [SEPHS2] | 2.53 ± 0.83 | 2.41 ± 0.69 | – | –
KCLSMFPHYICTLKQPHLLLEKYS [PNLIPRP1] | 2.67 ± 0.69 | 2.51 ± 0.59 | – | –
KCQHYKKKRTEQEETIASLQMEVC [CEP70] | 4.008 ± 0.008 | 4.02 ± 0.56 | – | –
KDKENKFLCVLMSDWFNFHGHMCI [CLK3] | 3.06 ± 0.31 | 3.08 ± 0.53 | – | –
KDREFHELQGDFSVPDVPKSMAWC [VPS39] | 3.5 ± 0.33 | 3.31 ± 0.15 | – | –
KEATVPCTEILTEKKDTITNDSLS [MIA2] | – | 5.49 ± 0.15 | – | –
KECKDRGFEYDGKINAWDLYYYMT [NLN] | 2.52 ± 0.3 | 2.16 ± 0.29 | – | –
KEEQRDYVFYLAVGNYRLKEYEKA [FIS1] | 2.39 ± 0.43 | 2.23 ± 0.36 | – | –
KEHVPTWLQNTHVYSWPKNKKNIL [TRAF3IP2] | 2.71 ± 0.081 | 3.43 ± 0.24 | – | –
KEISDDEAEEEKGEKEEEDKDDEE [HSP90AB1] | 5.66 ± 0.34 | 5.68 ± 0.19 | – | –
KEKELSIELANIRDEVAFHTAKCE [MTUS2] | 4.46 ± 0.43 | 4.37 ± 0.46 | – | –
KELEKRREESQHEIKDVLVWTNDQ [PPFIA4] | 5.27 ± 0.17 | 5.25 ± 0.21 | – | –
KFCMNGAALCALGKDCFLELAPDF [ETS1] | 2.18 ± 0.33 | 2.01 ± 0.16 | – | –
KFNGITEKEYKTYKENFLKRFQLT [USP39] | 3.59 ± 0.12 | 3.86 ± 0.15 | – | –
KFTQDNLCRAQRERLASANLRVLV [TEKT4] | 2.15 ± 0.57 | 2.23 ± 0.26 | – | –
KFYTWLWGVFYYFVSALGITAGAH [SCD] | 2.253 ± 0.003 | 2.84 ± 1.1 | – | –
KGGQDVKKKVHLSEKIHPFIRKSI [PRIM1] | 3.85 ± 0.53 | 3.59 ± 0.48 | – | –
KGYNIWTGGPDACLRCWDQRTIMK [TLE6] | 2.32 ± 0.18 | 2.45 ± 0.14 | – | –
KHVLYVEHRHLNPDTELKRYFGAR [TCF25] | 2.29 ± 0.42 | 2.48 ± 0.36 | – | –
KKMESEEDSNWEKSPDNEDSGDSK [GOLPH3L] | 5.63 ± 0.23 | 5.59 ± 0.26 | – | –
KLDIQCDLKTLSDDIKESLESEGK [ATE1] | 5.19 ± 0.23 | 5.01 ± 0.1 | – | –
